B1: SEQ ID NO 174 (designed binder)
chain: MLPAPKNLVVSRVTEDSARLSWTAPDAAFDSFFIGYLEPQPPGEAIQLWVPGSERSYDLTGLKPGTEYNVTIQGVKGGFPSMPLSAIFTT
notes: FN3 domain
B2: SEQ ID NO 108 (designed binder)
chain: MLPAPKNLVVSRVTEDSARLSWTAPDAAFDSFFIGYLEPQPPGEAIQLRVPGSERSYDLTGLKPGTEYNVTIQGVKGGFPSMPLSAIFTT
notes: FN3 domain
B3: SEQ ID NO 107 (designed binder)
chain: MSLPAPKNLVVSRVTEDSARLSWTAPDAAFDSFYIAYAEPRPDGEAISLYVPGSERSYDLTGLKPGTEYSVLIHGVKGGLLSSPLSAISTT
notes: FN3 domain
B4: SEQ ID NO 170 (designed binder)
chain: MLPAPKNLVVSRVTEDSARLSWTAPDAAFDSFYIAYAEPRPDGEAIHLLVPGSERSYDLTGLKPGTEYSVLIHGVKGGLLSSPLLAHFTT
notes: FN3 domain
B5: SEQ ID NO 182 (designed binder)
chain: MLPAPKNLVVSRVTEDSARLSWTAPDAAFDSFYIAYAEPRPDGEAIDLHVPGSERSYDLTGLKPGTEYSVLIHGVKGGLLSSPLHALFTT
notes: FN3 domain
B6: SEQ ID NO 199 (designed binder)
chain: MLPAPKNLVVSRVTEDSARLSWTAPDAAFDSFYIAYAEPRPDGEAIHLWVPGSERSYDLTGLKPGTEYSVLIHGVKGGLLSSPLHADFTT
notes: FN3 domain
B7: SEQ ID NO 178 (designed binder)
chain: MLPAPKNLVVSRVTEDSARLSWTAPDAAFDSFYIAYAEPRPDGEAIQLQVPGSERSYDLTGLKPGTEYSVLIHGVKGGLLSSPLSAIVTT
notes: FN3 domain
B8: SEQ ID NO 193 (designed binder)
chain: MLPAPKNLVVSRVTEDSARLSWTAPDAAFDSFYIAYAEPRPDGEAISLSVPGSERSYDLTGLKPGTEYSVLIHGVKGGLLSSPLIANFTT
notes: FN3 domain
B9: SEQ ID NO 179 (designed binder)
chain: MLPAPKNLVVSRVTEDSARLSWTAPDAAFDSFPIAYAEPRPDGEAIVLTVPGSERSYDLTGLKPGTEYSVLIHGVKGGLLSSPLSAFFTT
notes: FN3 domain
B10: SEQ ID NO 194 (designed binder)
chain: MLPAPKNLVVSRVTEDSARLSWTAPDAAFDSFYIAYAEPRPDGEAIALLVPGSERSYDLTGLKPGTEYSVLIHGVKGGLLSSPLSAIVTT
notes: FN3 domain
B11: SEQ ID NO 198 (designed binder)
chain: MLPAPKNLVVSRVTEDSARLSWTAPDAAFDSFYIAYAEPRPDGEAIILEVPGSERSYDLTGLKPGTEYSVLIHGVKGGLLSSPLVAYFTT
notes: FN3 domain
B12: SEQ ID NO 197 (designed binder)
chain: MLPAPKNLVVSRVTEDSARLSWTAPDAAFDSFYIAYAEPRPDGEAIKLDVPGSERSYDLTGLKPGTEYSVLIHGVKGGLLSSPLVAFFTT
notes: FN3 domain
B13: SEQ ID NO 186 (designed binder)
chain: MLPAPKNLVVSRVTEDSARLSWTAPDAAFDSFYIAYAEPRPDGEAIQLGVPGSERSYDLTGLKPGTEYSVLIHGVKGGLLSSPLSAIFTT
notes: FN3 domain
B14: SEQ ID NO 201 (designed binder)
chain: MLPAPKNLVVSRVTEDSARLSWTAPDAAFDSFYIAYAEPRPDGEAISLWVPGSERSYDLTGLKPGTEYSVLIHGVKGGLLSSPLLAHFTT
notes: FN3 domain
B15: SEQ ID NO 195 (designed binder)
chain: MLPAPKNLVVSRVTEDSARLSWTAPDAAFDSFYIAYAEPRPDGEAIILDVPGSERSYDLTGLKPGTEYSVLIHGVKGGLLSSPLSSIFTT
notes: FN3 domain
B16: SEQ ID NO 183 (designed binder)
chain: MLPAPKNLVVSRVTEDSARLSWTAPDAAFDSFYIAYAEPRPDGEAILLDVPGSERSYDLTGLKPGTEYSVLIHGVKGGFPSMPLSAIFTT
notes: FN3 domain
B17: SEQ ID NO 196 (designed binder)
chain: MLPAPKNLVVSRVTEDSARLSWTAPDAAFDSFYIAYAEPRPDGEAIVLWVPGSERSYDLTGLKPGTEYSVLIHGVKGGLLSSPLRASFTT
notes: FN3 domain
B18: SEQ ID NO 190 (designed binder)
chain: MLPAPKNLVVSRVTEDSARLSWTAPDAAFDSFYIAYAEPRPDGEAISLDVPGSERSYDLTGLKPGTEYSVLIHGVKGGLLSSPLEASFTT
notes: FN3 domain
B19: SEQ ID NO 185 (designed binder)
chain: MLPAPKNLVVSRVTEDSARLSWTAPDAAFDSFYIAYAEPRPDGEAIYLGVPGSERSYDLTGLKPGTEYSVLIHGVKGGLLSSPLRAKFTT
notes: FN3 domain
B20: SEQ ID NO 200 (designed binder)
chain: MLPAPKNLVVSRVTEDSARLSWTAPDAAFDSFYIAYAEPRPDGEAIWLEVPGSERSYDLTGLKPGTEYSVLIHGVKGGLLSSPLVADFTT
notes: FN3 domain
B21: SEQ ID NO 175 (designed binder)
chain: MLPAPKNLVVSRVTEDSARLSWTAPDAAFDSFRISYCETFYHGEAIVLTVPGSERSYDLTGLKPGTEYSVLIHGVKGGLLSSPLIAKFTT
notes: FN3 domain
B22: SEQ ID NO 180 (designed binder)
chain: MLPAPKNLVVSRVTEDSARLSWTAPDAAFDSFYIAYAEPRPDGEAIALLVPGSERSYDLTGLKPGTEYSVLIHGVKGGLLSSPLVAQFTT
notes: FN3 domain
B23: SEQ ID NO 171 (designed binder)
chain: MLPAPKNLVVSRVTEDSARLSWTAPDAAFDSFYIAYAEPRPDGEAIQLWVPGSERSYDLTGLKPGTEYSVLIHGVKGGLLSSPLDAYFTT
notes: FN3 domain
B24: SEQ ID NO 189 (designed binder)
chain: MLPAPKNLVVSRVTEDSARLSWTAPDAAFDSFYIAYAEPRPDGEAIQLTVPGSERSYDLTGPKPGTEYWVLIQGVKGGGSSVPLVAYFTT
notes: FN3 domain
B25: SEQ ID NO 188 (designed binder)
chain: MLPAPKNLVVSRVTEDSARLSWTAPDAAFDSFYIAYAEPRPDGEAIGLGVPGSERSYDLTGLKPGTEYSVLIHGVKGGLLSSPLDASFTT
notes: FN3 domain

Tests used:
[1] = molecular target: T1, recombinant biotinylated human CD71 extracellular domain (human, UniProt P02786 89-760, biotinylated); assay: solution ELISA
T1 construct: extracellular domain; also called hCD71; huCD71 ECD

CD71 apical domain [2] = molecular target: T2, CD71 apical domain (UniProt P02786 189-383, limits assumed); assay: solution ELISA
T2 construct: domain: Apical domain

[3] = molecular target: T1, recombinant biotinylated human CD71 …; assay: solution ELISA, signal ratio to HSA
CD71 apical domain [4] = molecular target: T2, CD71 apical domain; assay: solution ELISA, signal ratio to HSA

T1 sequence (P02786 other isoform, or with tags, fused parts or gaps): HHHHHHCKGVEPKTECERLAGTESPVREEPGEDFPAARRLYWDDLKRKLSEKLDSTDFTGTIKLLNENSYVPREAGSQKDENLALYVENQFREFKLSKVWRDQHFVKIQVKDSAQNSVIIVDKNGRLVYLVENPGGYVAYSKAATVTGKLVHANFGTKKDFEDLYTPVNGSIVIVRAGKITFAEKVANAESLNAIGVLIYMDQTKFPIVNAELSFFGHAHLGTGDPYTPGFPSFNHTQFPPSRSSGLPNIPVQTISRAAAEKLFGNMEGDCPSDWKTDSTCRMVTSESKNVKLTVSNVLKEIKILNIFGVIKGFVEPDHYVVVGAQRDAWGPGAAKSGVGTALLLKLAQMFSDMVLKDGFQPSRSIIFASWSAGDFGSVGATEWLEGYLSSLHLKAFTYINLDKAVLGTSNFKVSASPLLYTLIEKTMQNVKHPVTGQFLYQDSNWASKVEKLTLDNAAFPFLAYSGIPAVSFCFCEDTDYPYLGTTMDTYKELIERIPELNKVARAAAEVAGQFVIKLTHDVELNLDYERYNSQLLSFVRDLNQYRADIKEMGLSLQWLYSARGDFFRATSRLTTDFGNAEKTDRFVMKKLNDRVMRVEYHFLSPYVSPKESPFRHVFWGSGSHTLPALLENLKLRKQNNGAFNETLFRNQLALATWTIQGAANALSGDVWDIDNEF
T2 sequence (P02786 189-383 limits assumed): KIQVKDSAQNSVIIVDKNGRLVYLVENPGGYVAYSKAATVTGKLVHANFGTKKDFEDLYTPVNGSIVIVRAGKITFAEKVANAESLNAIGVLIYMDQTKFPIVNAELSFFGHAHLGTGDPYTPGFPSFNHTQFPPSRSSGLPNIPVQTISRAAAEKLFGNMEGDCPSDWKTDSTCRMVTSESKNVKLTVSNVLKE

Binder | hCD71, RLU [1] [RLU] | Apical domain, RLU (CD71 apical domain [2]) [RLU] | hCD71:HSA [3] | apical domain:HSA (CD71 apical domain [4])
B1 | 1.9e+06 | 4.83e+06 | 61.7 | 157
B2 | 932000 | 2.44e+06 | 69.6 | 182
B3 | 1.36e+06 | 5.99e+06 | 21.8 | 95.8
B4 | 814000 | 4.86e+06 | 19.6 | 117
B5 | 197000 | 2.84e+06 | 14.5 | 209
B6 | 416000 | 5.56e+06 | 24.3 | 324
B7 | 865000 | 4.95e+06 | 45 | 257
B8 | 1.71e+06 | 6.12e+06 | 61.2 | 219
B9 | 3.68e+06 | 7.29e+06 | 127 | 252
B10 | 682000 | 4.78e+06 | 39 | 273
B11 | 3.91e+06 | 7.2e+06 | 186 | 342
B12 | 1.4e+06 | 6.78e+06 | 29.6 | 144
B13 | 844000 | 5.38e+06 | 50.6 | 322
B14 | 3.25e+06 | 7.5e+06 | 14 | 32.2
B15 | 4.27e+06 | 7.35e+06 | 103 | 177
B16 | 1.13e+06 | 6.95e+06 | 50.3 | 310
B17 | 2.13e+06 | 5.93e+06 | 84.6 | 235
B18 | 385000 | 4.89e+06 | 16.4 | 208
B19 | 652000 | 5.46e+06 | 44 | 369
B20 | 930000 | 6.1e+06 | 51.6 | 339
B21 | 4.32e+06 | 7.16e+06 | 313 | 519
B22 | 653000 | 3.88e+06 | 61.6 | 366
B23 | 653000 | 5.48e+06 | 35.3 | 296
B24 | 2.57e+06 | 98900 | 21.5 | 0.8
B25 | 358000 | 5.24e+06 | 13.3 | 195

— patent publication US20220332795A1 (ARO BIOTHERAPEUTICS, published 2022)
